Laboratory results as given in paper PMC13077772 (2025).

Biological target: melanoma-associated antigen 3 (MAGE-A3) peptide presented by HLA-A*01:01 (human | )
Assay: SPR

Kd: 29 nM
B1: mage-513, purified soluble protein (designed binder)
chain: LTVEEAIRLLLETQRRYPELGPEERQVADGALRVASLLLDIIATRRLLGDDDKELEKQLLKRIERLFTAPLPERRRLVEELEEPVLEEAAQAARELVKREQQ
modifications: heavy chain HLA-A*01:01 ectodomain taken by convention from the MAGE-A3/HLA-A1 structure 5BRZ (candidate P04439 is a different allele, A*03:01)
